Data on 1 substance can be found in IntAct's records for PubMed 27150041.

The target of the assay is smu2_caeel smu-2 (UniProt Q9N4U5).
Sequence of smu2_caeel smu-2 (Q9N4U5 whole entry): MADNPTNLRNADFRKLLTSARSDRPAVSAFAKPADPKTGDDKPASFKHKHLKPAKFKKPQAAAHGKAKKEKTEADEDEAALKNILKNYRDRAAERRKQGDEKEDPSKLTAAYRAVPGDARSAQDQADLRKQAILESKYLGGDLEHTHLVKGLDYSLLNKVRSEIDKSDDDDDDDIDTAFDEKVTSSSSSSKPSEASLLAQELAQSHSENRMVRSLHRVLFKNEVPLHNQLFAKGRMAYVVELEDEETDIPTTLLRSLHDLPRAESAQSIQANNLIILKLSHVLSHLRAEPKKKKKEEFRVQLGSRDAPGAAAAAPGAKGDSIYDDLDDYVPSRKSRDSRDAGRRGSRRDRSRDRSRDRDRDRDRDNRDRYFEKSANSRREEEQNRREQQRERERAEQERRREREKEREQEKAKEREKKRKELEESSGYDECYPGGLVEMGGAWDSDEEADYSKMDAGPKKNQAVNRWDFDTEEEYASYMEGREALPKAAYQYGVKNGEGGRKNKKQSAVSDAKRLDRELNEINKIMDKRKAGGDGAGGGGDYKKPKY

Sequence of Smu-1 suppressor of mec-8 and unc-52 protein (Caenorhabditis elegans), G5EEG7 L96R (G5EEG7 whole entry L96R): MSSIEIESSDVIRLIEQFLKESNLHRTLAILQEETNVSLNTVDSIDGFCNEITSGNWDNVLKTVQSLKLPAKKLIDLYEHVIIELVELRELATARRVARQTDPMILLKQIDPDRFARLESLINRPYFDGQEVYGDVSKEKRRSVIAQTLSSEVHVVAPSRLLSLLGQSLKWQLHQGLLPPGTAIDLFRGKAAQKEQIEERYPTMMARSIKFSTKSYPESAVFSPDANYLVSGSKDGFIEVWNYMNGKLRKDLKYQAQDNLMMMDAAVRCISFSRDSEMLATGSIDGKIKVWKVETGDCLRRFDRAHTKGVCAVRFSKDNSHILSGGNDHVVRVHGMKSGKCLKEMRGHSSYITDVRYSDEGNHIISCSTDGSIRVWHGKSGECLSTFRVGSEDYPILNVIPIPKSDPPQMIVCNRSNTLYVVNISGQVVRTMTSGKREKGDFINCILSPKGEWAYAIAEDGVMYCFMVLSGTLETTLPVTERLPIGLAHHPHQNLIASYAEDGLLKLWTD

Consider “Smu-1 suppressor of mec-8 and unc-52 protein (Caenorhabditis elegans), G5EEG7 L96R”, for which the “effect of a mutation on the interaction” value is listed as “disrupting interaction strength”.
